Results from paper PMC9410885, “Structural assembly of the nucleic-acid-binding Thp3–Csn12–Sem1 complex functioning in mRNA splicing” (Nucleic Acids Research, 2022).
Numbering of substitutions follows the chain as printed.

T1: Thp3 (186–470), truncated Thp3 (S. cerevisiae, UniProt Q12049 186-470)
T1 construct: Thp3 (Ypr045c), S. cerevisiae, residues 186-470 (HD and WH domains); 8×His-GST tag removed with TEV protease; also called truncated Thp3 (residues 186–470); not shown: His8, N-terminal, cleaved; GST, N-terminal, cleaved
T1 sequence (looked up): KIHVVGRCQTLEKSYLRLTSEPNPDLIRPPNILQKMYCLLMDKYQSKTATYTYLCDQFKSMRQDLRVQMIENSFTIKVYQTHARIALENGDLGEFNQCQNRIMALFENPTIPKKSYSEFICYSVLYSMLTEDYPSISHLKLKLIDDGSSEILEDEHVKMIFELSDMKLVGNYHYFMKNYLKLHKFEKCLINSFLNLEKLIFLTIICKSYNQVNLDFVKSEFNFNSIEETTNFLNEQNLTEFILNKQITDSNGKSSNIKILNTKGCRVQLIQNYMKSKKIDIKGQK

T2: Thp3;Csn12 R401E;Sem1 (Saccharomyces cerevisiae;Saccharomyces …, UniProt Q12049;P47130;O94742 1-470;1-423;1-89, |R401E|)
T2 sequence 1: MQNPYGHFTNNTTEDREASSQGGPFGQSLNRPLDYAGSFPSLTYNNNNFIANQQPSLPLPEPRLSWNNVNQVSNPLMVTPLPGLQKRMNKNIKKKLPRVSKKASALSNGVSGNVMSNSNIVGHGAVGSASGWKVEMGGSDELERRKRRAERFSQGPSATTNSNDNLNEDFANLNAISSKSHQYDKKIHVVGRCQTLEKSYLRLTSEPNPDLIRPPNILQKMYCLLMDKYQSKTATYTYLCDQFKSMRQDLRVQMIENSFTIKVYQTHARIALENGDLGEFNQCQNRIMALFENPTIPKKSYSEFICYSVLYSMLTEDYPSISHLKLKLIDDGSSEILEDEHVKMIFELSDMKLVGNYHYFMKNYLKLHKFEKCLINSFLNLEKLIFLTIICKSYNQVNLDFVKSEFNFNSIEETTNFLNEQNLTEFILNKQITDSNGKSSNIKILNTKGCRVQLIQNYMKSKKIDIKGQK
T2 sequence 2: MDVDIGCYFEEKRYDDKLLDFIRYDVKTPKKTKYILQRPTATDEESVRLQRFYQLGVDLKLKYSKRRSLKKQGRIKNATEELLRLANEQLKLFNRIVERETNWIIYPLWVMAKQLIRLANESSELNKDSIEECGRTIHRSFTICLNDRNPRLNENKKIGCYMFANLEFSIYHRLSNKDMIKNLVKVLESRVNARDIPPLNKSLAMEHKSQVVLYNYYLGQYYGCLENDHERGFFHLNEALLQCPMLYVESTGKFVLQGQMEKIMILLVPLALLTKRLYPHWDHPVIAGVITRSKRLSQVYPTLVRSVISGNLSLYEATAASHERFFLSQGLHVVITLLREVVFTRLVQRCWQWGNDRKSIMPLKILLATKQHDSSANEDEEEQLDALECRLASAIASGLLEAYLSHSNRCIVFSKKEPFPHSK
T2 sequence 3: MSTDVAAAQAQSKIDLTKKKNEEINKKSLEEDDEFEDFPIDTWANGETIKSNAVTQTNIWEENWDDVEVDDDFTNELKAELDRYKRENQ

T3: Thp3;Csn12 K415E/K416E;Sem1 (Saccharomyces cerevisiae;Saccharomyces …, UniProt Q12049;P47130;O94742 1-470;1-423;1-89, |K415E;K416E|)
T3 sequence 1: T2 sequence 1
T3 sequence 2: T2 sequence 2 with E401R, K415E, K416E
T3 sequence 3: T2 sequence 3

T4: Thp3;Csn12;Sem1 (Saccharomyces cerevisiae;Saccharomyces …, UniProt Q12049;P47130;O94742 1-470;1-423;1-89, ||)
T4 sequence 1: T2 sequence 1
T4 sequence 2: T2 sequence 2 with E401R
T4 sequence 3: T2 sequence 3

T5: Csn12 (binary complex);Sem1 (Saccharomyces cerevisiae;Saccharomyces …, UniProt P47130;O94742 1-423;1-89, |)
T5 sequence 1: T2 sequence 2 with E401R
T5 sequence 2: T2 sequence 3

B1: Csn12, full length, untagged (natural protein, S. cerevisiae, UniProt P47130 1-423, looked up)
chain: T2 sequence 2 with E401R
notes: Csn12, S. cerevisiae, full length, residues 1-423; untagged Csn12 from pET-22b (with His8-GST-Thp3) or from the first MCS of pETDuet-1 (with Sem1 and His8-GST-Thp3); 7EWF is the selenomethionine form; source: E. coli Rosetta (DE3), co-expressed; in cleared lysate (pull-down) and purified in the ternary complex (Ni-NTA, gel filtration, cation exchange)
B2: T-rich dsDNA 20 (dsDNA)
DNA 1: TTTTATTTTATTTTTATTTT
DNA 2: AAAATAAAAATAAAATAAAA
B3: Sem1, full length, untagged (natural protein, S. cerevisiae, UniProt O94742 1-89, looked up)
chain: T2 sequence 3
notes: Sem1, S. cerevisiae, full length, residues 1-89; second MCS of pETDuet-1; source: E. coli Rosetta (DE3), co-expressed; in cleared lysate (pull-down) and purified in the ternary complex (Ni-NTA, gel filtration, cation exchange)

Legend:
[1] = molecular target: T1, Thp3 (186–470), truncated Thp3; test: crystal structure + SEC; single copy of the ternary complex in the asymmetric unit; ratio said to be consistent with the gel filtration result; settings: both partners purified
Thp3;Csn12 R401E;Sem1 = molecular target: T2, Thp3;Csn12 R401E;Sem1; test: fluorescence polarization; FP: 20 mM Tris-HCl pH 8.0, 150 mM NaCl, 2 mM MgCl2, 25 C; 50 nM 5'-FAM probe, protein 0-25.6 uM, 30 min; settings: protein: recombinant;recombinant;recombinant; tags: 8xHis-GST N-terminal, removed by TEV;none;none; copies: 1;1;1; label: 5' FAM
[2] = molecular target: T3, Thp3;Csn12 K415E/K416E;Sem1; test: as above; settings: protein: recombinant;recombinant;recombinant; tags: 8xHis-GST N-terminal, removed by TEV;none;none; copies: 1;1;1; label: 5' FAM
Thp3;Csn12;Sem1 = molecular target: T4, Thp3;Csn12;Sem1; test: as above; settings: protein: recombinant;recombinant;recombinant, tags: 8xHis-GST N-terminal, removed by TEV;none;none, copies: 1;1;1, label: 5' FAM
[3] = molecular target: T5, Csn12 (binary complex);Sem1; test: as above; settings: protein: recombinant;recombinant; tags: 6xHis;none; copies: 1;1; label: 5' FAM
[4] = molecular target: B1; test: crystal structure + SEC; single copy of the ternary complex in the asymmetric unit; ratio said to be consistent with the gel filtration result; settings: both partners purified

Binder: B1
stoichiometry N [1]: 1

Binder: TTTTATTTTATTTTTATTTT (ssDNA) [T-rich ssDNA 20]
binding result (Thp3;Csn12 R401E;Sem1): no binding
binding result [2]: no binding
Kd (Thp3;Csn12;Sem1): 3.7 µM

Binder: TTTTATTTTATTTTTATTTTATTTT (ssDNA) [T-rich ssDNA 25]
Kd [3]: 33.8 µM
Kd (Thp3;Csn12;Sem1): 2.9 µM

Binder: B2
Kd (Thp3;Csn12;Sem1; blunt): 1.1 µM

Binder: B3
stoichiometry N [4]: 1

Binder: AUAUAUAUAUAUAUAUAUAU (ssRNA) [AU-repeat ssRNA 20]
Kd (Thp3;Csn12;Sem1): 4.5 µM

Binder: AUAUAUAUAUAUAUAUAUAUAUAUA (ssRNA) [AU-repeat ssRNA 25]
Kd (Thp3;Csn12;Sem1): 1.6 µM
